Patent publication US20230312724A1 (KADMON, published 2023)

T1: mouse B7-H4-his (mouse, UniProt Q7TSP5 25-257)
T1 construct: also called mB7-H4-his; mB7-H4-His; not shown: his tag
T1 sequence: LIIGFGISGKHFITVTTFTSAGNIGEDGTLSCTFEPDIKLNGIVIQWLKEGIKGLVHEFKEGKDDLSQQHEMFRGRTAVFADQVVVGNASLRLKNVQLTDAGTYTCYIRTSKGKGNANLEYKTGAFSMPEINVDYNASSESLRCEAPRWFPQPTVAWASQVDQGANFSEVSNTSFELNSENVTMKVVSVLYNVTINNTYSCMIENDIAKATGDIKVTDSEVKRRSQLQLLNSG

T2: human B7-H4-his (human, UniProt Q7Z7D3 25-259)
T2 construct: also called hB7-H4-his; hB7-H4 his; not shown: his tag
T2 sequence: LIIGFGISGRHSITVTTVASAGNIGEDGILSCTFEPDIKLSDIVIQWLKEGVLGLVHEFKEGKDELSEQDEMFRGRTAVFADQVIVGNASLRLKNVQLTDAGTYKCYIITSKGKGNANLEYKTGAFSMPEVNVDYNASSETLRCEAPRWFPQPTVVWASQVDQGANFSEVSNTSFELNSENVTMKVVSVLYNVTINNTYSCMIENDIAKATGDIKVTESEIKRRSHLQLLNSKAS

T3: mB7-H4 (soluble mouse B7-H4, construct not named) (mouse, UniProt Q7TSP5 25-257, limits assumed)
T3 sequence: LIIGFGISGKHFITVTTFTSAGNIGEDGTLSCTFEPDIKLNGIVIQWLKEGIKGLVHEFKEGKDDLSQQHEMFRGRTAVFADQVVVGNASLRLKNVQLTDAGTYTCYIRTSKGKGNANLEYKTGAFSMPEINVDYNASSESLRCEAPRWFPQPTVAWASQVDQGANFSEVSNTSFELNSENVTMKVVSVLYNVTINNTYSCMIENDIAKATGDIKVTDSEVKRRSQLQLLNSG

T4: mouse B7-H4 expressed on cells (mouse, UniProt Q7TSP5 25-257)
T4 construct: also called cellular mB7-H4; mB7-H4/CT26
T4 sequence: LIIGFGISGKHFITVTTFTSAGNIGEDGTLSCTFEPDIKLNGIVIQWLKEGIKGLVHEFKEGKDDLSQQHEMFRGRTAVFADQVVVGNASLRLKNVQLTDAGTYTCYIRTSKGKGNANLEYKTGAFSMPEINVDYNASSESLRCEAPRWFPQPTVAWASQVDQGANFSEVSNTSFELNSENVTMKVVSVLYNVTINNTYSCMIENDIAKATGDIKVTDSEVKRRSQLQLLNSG

T5: human B7-H4 expressed on cells (human, UniProt Q7Z7D3 25-282)
T5 construct: Transfected CHO cells or tumor cell lines that carry hB7-H4; also called cellular hB7-H4
T5 sequence: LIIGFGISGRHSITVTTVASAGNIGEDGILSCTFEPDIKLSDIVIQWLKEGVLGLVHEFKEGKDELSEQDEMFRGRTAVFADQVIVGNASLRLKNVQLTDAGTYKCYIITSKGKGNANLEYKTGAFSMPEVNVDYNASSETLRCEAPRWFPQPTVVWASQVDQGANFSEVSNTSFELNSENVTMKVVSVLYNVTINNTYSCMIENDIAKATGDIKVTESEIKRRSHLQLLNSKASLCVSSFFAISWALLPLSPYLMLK

T6: hB7-H4 (soluble human B7-H4, construct not named) (human, UniProt Q7Z7D3 25-259, limits assumed)
T6 construct: also called soluble hB7-H4
T6 sequence: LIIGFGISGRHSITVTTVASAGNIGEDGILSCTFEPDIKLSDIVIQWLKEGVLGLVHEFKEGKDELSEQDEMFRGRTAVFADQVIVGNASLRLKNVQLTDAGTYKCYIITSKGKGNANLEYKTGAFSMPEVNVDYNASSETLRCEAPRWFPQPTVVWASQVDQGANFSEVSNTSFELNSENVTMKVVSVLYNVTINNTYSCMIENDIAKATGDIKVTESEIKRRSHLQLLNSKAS

B1: 6C3/6C3 (antibody, human IgG1, V domains shown)
VH: EVQLLESGGGLVQPGGSLRLSCAASGFTFSSYAMHWVRQAPGKGLEWVASISGTGFTTRYADSVKGRFTISRDNSKNTLYLQMNSLRAEDTAVYYCARGGWFRDTPVDYWGQGTLVTVSS
VL: DIVMTQSPLSLPVTPGEPASISCRSSQSLLHSNGYNYLDWYLQKPGQSPQLLIYGASSLRSGVPDRFSGSGSGTDFTLKISRVEAZDVGVYYCMQASHWPPTFGQGTRLEIK
notes: The VL holds a letter Z
B2: 39A11/56A9 (antibody, human IgG1, V domains shown)
VH: EVQLLESGGGLVQPGGSLRLSCAASGFTFSSYGMHWVRQAPGKGLEWVASISSSSGYIYYADSVKGRFTISRDNSKNTLYLQMNSLRAEDTAVYYCARASSGMDVWGQGTTVTVSS
VL: DIQMTQSPSSLSASVGDRVTITCRASQSISSYLNWYQQKPGKAPKLLIYAASIRESGVPSRFSGSGSGTDFTLTISSLQPEDFATYYCQQYYTTPLTFGQGTKLEIK
notes: 39A11 VH with 56A9 VL
B3: 39A11/56H7 (antibody, human IgG1, V domains shown)
VH: EVQLLESGGGLVQPGGSLRLSCAASGFTFSSYGMHWVRQAPGKGLEWVASISSSSGYIYYADSVKGRFTISRDNSKNTLYLQMNSLRAEDTAVYYCARASSGMDVWGQGTTVTVSS
VL: DIQMTQSPSSLSASVGDRVTITCRASQSISSYLNWYQQKPGKAPKLLIYAASNLQSGVPSRFSGSGSGTDFTLTISSLQPEDFATYYCQQYYTTPLTFGQGTKLEIK
notes: 39A11 VH with 56H7 VL

Experiments:
human B7-H4-Fc [1] = molecular target: T7, human B7-H4-Fc (human); assay: SPR (Biacore)
T7 construct: also called hB7-H4-Fc; hB7-H4 Fc
T7 sequence (chain, as listed by the source): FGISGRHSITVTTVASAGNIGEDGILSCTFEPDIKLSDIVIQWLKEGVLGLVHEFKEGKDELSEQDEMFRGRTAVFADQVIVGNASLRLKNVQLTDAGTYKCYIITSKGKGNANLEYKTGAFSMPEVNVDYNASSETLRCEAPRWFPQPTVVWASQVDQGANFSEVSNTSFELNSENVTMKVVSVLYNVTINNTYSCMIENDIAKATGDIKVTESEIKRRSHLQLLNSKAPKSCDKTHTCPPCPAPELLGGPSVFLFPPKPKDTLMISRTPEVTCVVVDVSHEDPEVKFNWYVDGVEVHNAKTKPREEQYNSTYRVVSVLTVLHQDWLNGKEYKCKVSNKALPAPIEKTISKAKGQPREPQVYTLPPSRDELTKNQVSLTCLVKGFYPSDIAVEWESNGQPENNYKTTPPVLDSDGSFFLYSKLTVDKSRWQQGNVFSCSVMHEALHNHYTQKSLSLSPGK
Protocol: (§1) Surface plasmon resonance experiments were performed using a Biacore T200 instrument equipped with CM5 sensor chips. The system was equilibrated in running buffer HBS-EP pH 7.4. The ligands were immobilized using amine-coupling chemistry. The surfaces of flow cells one through four were activated for 5 min using an amine coupling kit at a flow rate of […]. The ligands (human B7-H4-Fc, human B7-H4-hism and mouse B7-H4-Fc; at a concentration of 5 μg/ml in 10 mM sodium acetate, pH 5.0) were immobilized at a density of 50-100 RU on flow cell 2, 3, 4 respectively. Flow cell 1 was left blank to serve as a reference surface. All flow cell surfaces were blocked with a 5 min injection of 1 M ethanolamine, pH 8.0. To collect kinetic binding data, the respective analyte (diluted in 1×HBS-EP buffer, pH 7.4) was injected over the four flow cells at concentrations of 100 nM to 0.1 nM at a flow rate of […] and at a temperature of 25° C. The protein complex was allowed to associate and dissociate for 180 seconds and 1000 or 1200 seconds, respectively. The surfaces were regenerated with a 30 second injection of 1.5 M NaCl/0.05 M NaOH. The data were fit to a simple 1:1 interaction model using the Langmuir fit option available within the Biaevaluaton software
(§2) The kinetics for binding of the different antibodies to their targets were examined using Biacore analysis.

mouse B7-H4-his = molecular target: T1, mouse B7-H4-his; assay: SPR (Biacore)
Protocol: as §1, §2

human B7-H4-his = molecular target: T2, human B7-H4-his; assay: SPR (Biacore)
Protocol: as §1, §2

[2] = molecular target: T3, mB7-H4 (soluble mouse B7-H4, construct …); assay: summary of ELISA and flow cytometry
mouse B7-H4-Fc [3] = molecular target: T8, mouse B7-H4-Fc (mouse; human); assay: ELISA, coated mB7-H4-Fc (title on the sheet: Binding to mB7H4-Fc)
T8 construct: also called mB7-H4-Fc; mB7-H4-hFc
T8 sequence (chain, as listed by the source): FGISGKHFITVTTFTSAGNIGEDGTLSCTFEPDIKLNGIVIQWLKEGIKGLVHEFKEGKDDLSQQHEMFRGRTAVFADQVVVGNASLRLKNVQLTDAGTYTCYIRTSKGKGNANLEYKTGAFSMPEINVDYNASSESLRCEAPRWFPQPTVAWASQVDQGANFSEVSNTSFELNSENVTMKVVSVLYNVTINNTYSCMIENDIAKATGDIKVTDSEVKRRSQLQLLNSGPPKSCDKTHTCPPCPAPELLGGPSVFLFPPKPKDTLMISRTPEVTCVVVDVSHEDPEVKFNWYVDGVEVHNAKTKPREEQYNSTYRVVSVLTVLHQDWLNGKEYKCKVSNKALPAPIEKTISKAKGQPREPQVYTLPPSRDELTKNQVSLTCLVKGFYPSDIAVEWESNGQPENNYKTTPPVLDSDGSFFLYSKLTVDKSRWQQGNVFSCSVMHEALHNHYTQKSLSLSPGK
Protocol: (§3) ELISA experiments were performed to determine binding to hB7-H4-Fc (FIG. 4A), hB7-H4-his (FIG. 4B), hB7-H4 IgV domain (FIG. 4C), and mB7-H4 IgV domain (FIG. 4D). Flow cytrometry experiments were performed to determine binding to CHO cells expressing hB7-H4 (FIG. 4E) or mB7-H4 (FIG. 4F). […] A cross-reactive IgV binding antibody was used as a control.
(§4) About 1-2 μg/ml of human or mouse B7-H4-Fc (or his-tagged) was immobilized on ELISA plates (Immuno 2HB, Thermo scientific, cat #3455) at 4° C. overnight. After blocking the plates with 3% PBS+milk, serial diluted antibodies were added to the blocked plates and incubated at RT for 1-1.5 h. After washing the plates with PBS-T (0.05%), horse radish peroxidase (HRP)-conjugated antibody targeting the hFab was added to the plate. Signals were developed by adding 3,3′,5,5′-Tetramethylbenzidine (TMB (followed 1N of H₂SO₄ to stop the reaction. The OD at 450 nm was read by ELISA plate reader (Infinite M1000 from TECAN). GraphPad from Prism was used to plot OD450 vs. antibody concentration curve and to calculate the EC50 values.

human B7-H4-Fc [4] = molecular target: T7, human B7-H4-Fc; assay: ELISA, coated hB7-H4-Fc
Protocol: as §3, §4

[5] = molecular target: T4, mouse B7-H4 expressed on cells; assay: flow cytometry, CHO cells expressing mB7-H4
Protocol: ELISA experiments were performed to determine binding to hB7-H4-Fc (FIG. 3A), hB7-H4-his (FIG. 3B), mB7-H4-Fc (FIG. 3C), and hB7-H4 IgV domain (FIG. 3D). Flow cytometry experiments were performed to determine binding to CHO cells expressing hB7-H4 (FIG. 3E) or mB7-H4 (FIG. 3F).
(§5) Cells were harvested, washed once, and then re-suspended to the concentration of 1×10⁶ cells/ml in ice cold FACS Buffer. 25 μl of cell suspension was added to each well of a 96-well round-bottom microliter plate. Serially diluted antibodies or fusion proteins were added to each well and incubated for 1 hour at 4° C. Cells were washed three times by centrifugation at 1500 rpm for 5 minutes, and then stained with secondary antibody (1:200 dilution) for 30 min at 4° C. in the dark. Cells were washed once, re-suspended in 100 μl PBS buffer and then analyzed using Guava Flow Cytometry EasyCyte system.

[6] = molecular target: T9, IgV domain of mouse B7-H4-Fc (mouse; human); assay: ELISA, coated mB7-H4 IgV domain
T9 construct: also called mB7-H4 IgV domain
T9 sequence (chain, as listed by the source): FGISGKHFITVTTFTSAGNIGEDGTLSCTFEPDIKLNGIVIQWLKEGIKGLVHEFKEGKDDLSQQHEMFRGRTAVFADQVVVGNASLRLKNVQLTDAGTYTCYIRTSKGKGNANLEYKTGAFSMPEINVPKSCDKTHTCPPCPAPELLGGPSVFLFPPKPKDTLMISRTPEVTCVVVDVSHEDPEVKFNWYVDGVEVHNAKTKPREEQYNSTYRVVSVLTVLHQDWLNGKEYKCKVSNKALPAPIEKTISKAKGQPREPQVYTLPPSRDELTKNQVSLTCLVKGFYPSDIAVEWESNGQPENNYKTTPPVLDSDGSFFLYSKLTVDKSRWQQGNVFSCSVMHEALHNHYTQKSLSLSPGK
Protocol: as §3, §4

mouse B7-H4-Fc [7] = molecular target: T8, mouse B7-H4-Fc; assay: ELISA, coated mB7-H4-Fc
Protocol: as §4

[8] = molecular target: T10, IgC domain of mouse B7-H4-Fc (mouse; human); assay: ELISA, coated mB7-H4 IgC domain
T10 construct: also called mB7-H4 IgC domain
T10 sequence (chain, as listed by the source): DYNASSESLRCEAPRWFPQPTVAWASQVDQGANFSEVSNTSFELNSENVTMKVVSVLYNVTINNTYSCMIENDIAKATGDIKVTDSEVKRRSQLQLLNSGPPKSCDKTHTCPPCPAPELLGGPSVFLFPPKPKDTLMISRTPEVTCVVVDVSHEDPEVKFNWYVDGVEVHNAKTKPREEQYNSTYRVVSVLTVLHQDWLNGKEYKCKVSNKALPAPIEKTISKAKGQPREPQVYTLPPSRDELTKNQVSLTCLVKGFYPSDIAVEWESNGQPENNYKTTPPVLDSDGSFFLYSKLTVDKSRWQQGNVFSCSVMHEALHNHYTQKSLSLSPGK

[9] = molecular target: T5, human B7-H4 expressed on cells; assay: flow cytometry, SK-BR-3 cells
Protocol: as §5

[10] = molecular target: T6, hB7-H4 (soluble human B7-H4, construct …); assay: SPR (Biacore)
Protocol: as §1

[11] = molecular target: T3, mB7-H4 (soluble mouse B7-H4, construct …); assay: SPR (Biacore)
Protocol: as §1

[12] = molecular target: T6, hB7-H4 (soluble human B7-H4, construct …); assay: ELISA, hB7-H4
Protocol: as §4

[13] = molecular target: T4, mouse B7-H4 expressed on cells; assay: flow cytometry, mB7-H4/CT26 cells
Protocol: as §5

[14] = molecular target: T3, mB7-H4 (soluble mouse B7-H4, construct …); assay: ELISA, mB7-H4
Protocol: as §4

[15] = molecular target: T11, IgC domain of human B7-H4-Fc (human); assay: ELISA, coated hB7-H4 IgC domain
T11 construct: also called hB7-H4 IgC domain
T11 sequence (chain, as listed by the source): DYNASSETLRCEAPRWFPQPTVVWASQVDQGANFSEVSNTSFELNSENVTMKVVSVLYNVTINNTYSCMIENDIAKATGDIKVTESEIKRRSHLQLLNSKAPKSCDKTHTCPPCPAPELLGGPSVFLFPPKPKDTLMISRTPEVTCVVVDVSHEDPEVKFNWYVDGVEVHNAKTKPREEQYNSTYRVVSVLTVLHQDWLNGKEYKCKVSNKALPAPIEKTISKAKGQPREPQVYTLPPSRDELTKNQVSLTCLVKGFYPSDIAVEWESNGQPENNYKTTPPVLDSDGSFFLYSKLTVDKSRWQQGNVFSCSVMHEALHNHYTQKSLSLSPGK

| Binder | Kd (human B7-H4-Fc [1]) [pM] | binding result (mouse B7-H4-his) | Kd (human B7-H4-his) [pM] | binding result [2] | binding result (mouse B7-H4-Fc [3]) | EC50 (read off the curve) (human B7-H4-Fc [4]) [µg/mL] | binding result [5] | binding result [6] | binding result (mouse B7-H4-Fc [7]) | binding result [8] | EC50 [9] [pM] | Kd [10] [pM] | Kd [11] [pM] | EC50 [12] [pM] | EC50 [13] [pM] | EC50 [14] [pM] | binding result [15] |
| --- | --- | --- | --- | --- | --- | --- | --- | --- | --- | --- | --- | --- | --- | --- | --- | --- | --- |
| B1 | 10900 | no binding | 6300 | no binding | no binding (tested: log 0.3 ug/ml (about 2 ug/ml)) | ~0.03 | no binding (tested: axis value -7 (log scale labelled nM)) | no binding | – | – | – | – | – | – | – | – | – |
| B2 | – | – | – | – | – | – | – | – | binds | no binding (tested: log 1 nM (10 nM)) | 2530 | 1210 | 1.38 | 81 | 1850 | 130 | no binding (tested: log 1 nM (10 nM)) |
| B3 | – | – | – | – | – | – | – | – | binds | no binding (tested: log 1 nM (10 nM)) | 2850 | 779 | 0.219 | 61 | 1670 | 107 | no binding (tested: log 1 nM (10 nM)) |
